Measurements as given in the supplement of paper PMC9170038.

Key:
[1] = test system: MS2 coat protein; assay: apparent KD of MS2 coat protein; designed switch direction (-1 OFF switch, 1 ON switch): 1; higher = weaker reporter binding; conditions: Eterna round: R98
Description: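 RNA-MaP: designed FMN/MS2 RNA switches (84 nt design region) are transcribed on-chip within common flanks and titrated with SNAP-549-labelled MS2 coat protein (about 1-3000 nM) in 100 mM Tris pH 7.5, 80 mM KCl, 4 mM MgCl2, without or with 200 uM FMN. Median apparent KD per design; activation ratio = KD,OFF / KD,ON.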

[2] = test system: MS2 coat protein; assay: apparent KD of MS2 coat protein, switch ON state; designed switch direction (-1 OFF switch, 1 ON switch): 1; higher = weaker reporter binding; conditions: FMN input: 0 or 200 uM; Eterna round: R93 (includes R88 designs)
Procedure, shortened: (§1)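 Apparent KD was obtained for each design as the median of normalised binding-curve fits over its clusters. RNA switches transcribed on-chip from Illumina sequencing clusters were titrated with SNAP-549-labelled MS2 coat protein (twofold steps, 0.7 or 1.5 nM to 3 µM) in 100 mM Tris-HCl pH 7.5, 80 mM KCl, 4 mM MgCl2, without or with constant ligand.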

[3] = test system: MS2 coat protein; assay: apparent KD of MS2 coat protein, switch OFF state (with FMN for OFF switches, without FMN for ON switches); designed switch direction (-1 OFF switch, 1 ON switch): 1; higher = weaker reporter binding; conditions: FMN input: 0 or 200 uM; Eterna round: R93 (includes R88 designs)
Procedure, shortened: as §1

Row | Sequence | apparent KD of MS2 coat protein ([1]; input ligand: FMN 200 uM) | apparent KD of MS2 coat protein ([1]; input ligand: none) | apparent KD of MS2 coat protein [2] | apparent KD of MS2 coat protein [3]
1 | AAAUAAAAUAUAGGAUAUGGAAACAUGAGGAUCACCCAUGUAAAAUAAAAUAAAUAAUAAUAUAACCAGAAGGAUAAAAUAUAA [LRO002_SS NG 2] | 36.1 nM | 33.9 nM | – | –
2 | AAAACAUGAGGAUCACCCAUGUAUAGAUCGGUUGUUAGGAGUGAGGAUAUGCUUAAAAUAAGGUAGCAGAAGGCACUGGGUACA [JR_SSNG3_Sub071] | 23.6 nM | 15.3 nM | – | –
3 | GGAUCCAUCACAGGAUAUGCUGGACUUUGUCCAGCAGAAGGGUGACAUGAGGAUCACCCAUGUACAAAGGAUCCUAUAUUUAAU [Denovo 28] | 45.2 nM | 377 nM | – | –
4 | GCACUCAAGUUAGGAUAUGGAUCGGAAACCGAUCCAGAAGGAACACGAAAACAUGAGCAUCAGCCGUGUUCCAGAAACGAGUGC [SameSame 14 - Jieux - Same State NG 1] | 347 nM | 917 nM | – | –
5 | GGUCCAUCAUGAGGAUAUGGCACCUUAUUGGUGCCAGAAGGCAUGUCUUUUGACAUGAGGAUCACCCAUGUAAUAAAUUGGACC [Pyrimidine booster 6] | 130 nM | 1920 nM | – | –
6 | CUGCAAUUCUUAGGAUAUGCUCAGGAUAACUGAGCAGAAGGAAGAUAUACCUGAGGAUCACCCAGGUUAAACUGGAGCAGAAUA [Same State NG1 - A3C, U17G Submission 8B] | 33.6 nM | 179 nM | – | –
7 | CUGCGAUUCUUAGGAUAUCGAGUGGAAUACACUCGAGAAGGAAGAAUAACCUGAGGAUCACCCAGGUAAUACUGAAGCAGAAUA [Same State NG1 - A3C, U17G Submission 9C] | 23.4 nM | 32.7 nM | – | –
8 | CAGCAAUUCUUAGGAUAUGCUCAGGAAUACUGAGCAGAAGGAAGAUAUACCUGAGGAUCACCCAGGUUAAACUGAAGCUGAAUA [Same State NG1 - A3C, U17G Submission 7B] | 17.4 nM | 15.7 nM | – | –
9 | CAUGUCCUCACAGGAUAUGCACCACUUUGUGGUGCAGAAGGGUGGAAACAUGAGGAUCACCCAUGUGGACAUGAUAUAUUUAAU [Denovo 7] | 22.4 nM | 164 nM | – | –
10 | GUAGCAUACCGAGGAUAUUCAUAUAUGAAAAUAACAUGAGGAUCACCCAUGUGGCGAAAGCCUUGGGAGAAGGCGGAAUGCUAC [Xeinanis 75 22] | 34.4 nM | 490 nM | – | –
11 | UGGAUGGUAUGAGGAUAUGCGCGCGAAACGCGCGCAGAAGGCAUGUCAAUAGACAUGAGGAUCACCCAUGUAUUAUCCAUCCAA [MatMod 9 - Jieux - Same State NG 1] | 39.4 nM | 300 nM | – | –
12 | UAUAUAUGGUGAGGAUAUGCAAAGGAUCACCUUGUAGAAGGCAUCAGGGUAGAAGGUGCAAGGAUCACCUGUAAGGAUAUAUCC [pwkr2 ssNG1 DX.25] | 447 nM | 1560 nM | – | –
13 | GUGCACACUCGAGGAUAUCGGAGAUUUCUCCUUCGAGAAGGCGAUUCGUGCCGUGUUAUUCUGGACAUGAGGAUCACCCAUGUG [LRO026_SS NG 1 mod JR_SSNG1_Sub034] | 35.4 nM | 110 nM | – | –
14 | UGAUCGCUUGGAGGAUAUCCAACUAUCAUAGUUGGAGAAGGCCAAGCUACAGAGCUAAGCUUGGAAGUCACUUCCGAUCAACAC [pwkr ssNG1 F9.4.3] | 49.7 nM | 59.1 nM | – | –
15 | AUAGGUUAAGGAGGAUAUAGAGGGAGAAGUAAACAUGAGGAUCACCCAUGUAUUUAAUUAGUUUACUAGAAGGCUUGUGAUUGU | 50.9 nM | 45.9 nM | – | –
16 | AGAAUGACAUGAGGAUCACCCAUGUUGGGAAAACCCGUAACUCAGGAUAUGUACGCGAAAGACCGACAGAAGGGAGAUCUACAC [Amaes] | 43.3 nM | 37.4 nM | – | –
17 | UCACUCACGUCAGGAUAUGGAUCGGAAAACGAUCCAGAAGGGACCUGCAAACGUGAGGAUCACCCACGUUCCAAUAACGAGUGA [SameSame 11 - Jieux - Same State NG 1] | 29.7 nM | 35.4 nM | – | –
18 | AAAACAUGAGGAUCACCCAUGUAAAGUUCGGAAAGUUAGAGUGAGGAUAUACAAAUUUUUAUUUAGUAGAAGGCACUGGGUACA [JR_SSNG3_Sub032Nu] | 24.8 nM | 26.7 nM | – | –

Row | Sequence | apparent KD of MS2 coat protein ([1]; input ligand: FMN 200 uM) | apparent KD of MS2 coat protein ([1]; input ligand: none) | apparent KD of MS2 coat protein [2] | apparent KD of MS2 coat protein [3]
19 | AGAAAUAAAAUGGAGGAUAUCCAAAAGAAAACAUGAGGAUCACCCAUGUAAAAGAAAAUAAAAUGGGAGAAGGCCACAAAUAAAG | – | – | 26.8 nM | 31.4 nM
20 | GUGGACAUAGGAUAGGAUAUAUGAAUAAUUACAUGAGGAUCACCCAUGUCCAUUUAUAUGGGAACAUAGAAGGGUUGUAGUUAAC [Mat - Same state - Malcolm Mod - D131] | – | – | 117 nM | 81.9 nM
21 | AAAAAAUAAAAAAAGGAUAUACUGCUAGAAACAUGAGGAUCACCCAUGUAACUAGCAGUAAUAAAAAAGAAGGAAAAAUAAAAAA [SS2: MS2 35] | – | – | 1.15 nM | 3.61 nM
22 | GUGUAAAGAAUCGAGGAUAUCCUGAAAAGCACAUGAGGAUCACCCAUGUAAGAGCGAGAAUAAUGGGAGAAGGCGAGUUAUCGGU [JR_SS002_Sub1711] | – | – | 20.1 nM | 33 nM
23 | AAACCACAUGAGGAUCACCCAUGUAAAAAUAUGGGAGGAUAUCGGAAUAAAAUAAAGAAACGAGAAGGCCUAAAAA [59%, Flamingo, 5] | – | – | 33.7 nM | 472 nM
24 | AAUAAUUAUACGAAGGAUAUCGGUAAUUAGACAUGAGGAUCACCCAUGUUAUAUGGUUAAAUAUUCGAGAAGGUCGAGGGUGAAA [JR_SS002_Sub505] | – | – | 36.1 nM | 32.7 nM
25 | AACAAUCUAUCUGAGGAUAUAUGUCGAAAGACAUGAGGAUCACCCAUGUAAAAACAUGAAAAGACAUAGAAGGCAGAUAGAUUGA [SS2: 1132] | – | – | 18.6 nM | 36.1 nM
26 | AAAACACAUGAGGAUCACCCAUGUAUCUGGACCAUAGGAUAUCCGCACCCACUAAGGCGUGGAGAAGGGUGAGCCC [Antisoorti] | – | – | 160 nM | 124 nM
27 | AAAUAACAUGAGGAUCACCCAUGUUACAACAAUACAGGAUAUGUGGGUGAAAAUAGCAUGACAGAAGGGUAAUGUA [SameState1 Malc#32] | – | – | 239 nM | 79.8 nM
28 | AGAAAACAUGAGGAUCACCCAUGUAGAAAUAUGGGAGGAUAUACAAAGACGAAAGUCAAGGUAGAAGGCCUAAAGA [Mat - Same State 1 - Meechl mod - D124] | – | – | 20 nM | 99.9 nM
29 | AGGAAACAUGAGGAUCACCCAUGUAAAAAUAUGGAAGGAUAUGGAAACACGAAAGUGAAACCAGAAGGUUCAAAAA [77%, Mat - Mod of Eli, 22] | – | – | 18.5 nM | 24.7 nM
30 | AAAAGACAUGAGGAUCACCCAUGUUAAGACGUAGGAGGAUAUGUAUGGAAAACAUGCUGUACAGAAGGCCUGUGUC [SS1 - 26] | – | – | 17.8 nM | 20.8 nM
31 | ACAAAACAUGAGGAUCACCCAUGUAUAAAUAUAACAGGAUAUGGGACUGCCGAUUAGGCACCAGAAGGGUUUUCAC [Atearve] | – | – | 20.8 nM | 27.3 nM
32 | AGAAAUAAAAGAGAGGAUAUCCAAAAGAAAACAUGAGGAUCACCCAUGUAAAAGAAAAUAAAAUGGGAGAAGGCUCAAAAUAAAGA [Helter Skelter 2] | – | – | 21.6 nM | 69.7 nM
33 | UUACAACAUGAGGAUCACCCAUGUAAACCCGACUAAGGAUAUGGAGUGAAAGAUAUCAUCCCAGAAGGUAGAAAUA [Istegeisis] | – | – | 48.2 nM | 53.3 nM
34 | AGAAAUAAAACACAGGAUAUCCAAAAGAAAACAUGAGGAUCACCCAUGUAAAGAAAAUAAAAAUGGGAGAAGGGUGAAAAUAAGA [Mat - Same State 2 - JL mod - D15] | – | – | 19.9 nM | 31.5 nM
35 | AACAUACAUGAGGAUCACCCAUGUUCCGGCAGGUCAGGAUAUUUAUCGAAUGAGUUCUAGAAAGAAGGGACAUAAA [JR_SS001_Sub008] | – | – | 45.8 nM | 62.7 nM
36 | AAUAAAAAUAGUCAGGAUAUGAGAAAUAAGACAUGAGGAUCACCCAUGUAAUAAGUAAAAGUAAAUUAGAAGGGACAGGGUGAAA [JR_SS002_Sub019] | – | – | 200 nM | 167 nM
